Results taken from US20220340682A1 (Sanofi, published 2022).
Where a chain is given by its changes, count along the chain named.

T1: hCEACAM5, human CEACAM5 ECD (35-685) (human, UniProt P06731 35-685)
T1 construct: produced in HEK293; also called human CEACAM5 protein; human CEACAM5 extracellular domain
T1 sequence: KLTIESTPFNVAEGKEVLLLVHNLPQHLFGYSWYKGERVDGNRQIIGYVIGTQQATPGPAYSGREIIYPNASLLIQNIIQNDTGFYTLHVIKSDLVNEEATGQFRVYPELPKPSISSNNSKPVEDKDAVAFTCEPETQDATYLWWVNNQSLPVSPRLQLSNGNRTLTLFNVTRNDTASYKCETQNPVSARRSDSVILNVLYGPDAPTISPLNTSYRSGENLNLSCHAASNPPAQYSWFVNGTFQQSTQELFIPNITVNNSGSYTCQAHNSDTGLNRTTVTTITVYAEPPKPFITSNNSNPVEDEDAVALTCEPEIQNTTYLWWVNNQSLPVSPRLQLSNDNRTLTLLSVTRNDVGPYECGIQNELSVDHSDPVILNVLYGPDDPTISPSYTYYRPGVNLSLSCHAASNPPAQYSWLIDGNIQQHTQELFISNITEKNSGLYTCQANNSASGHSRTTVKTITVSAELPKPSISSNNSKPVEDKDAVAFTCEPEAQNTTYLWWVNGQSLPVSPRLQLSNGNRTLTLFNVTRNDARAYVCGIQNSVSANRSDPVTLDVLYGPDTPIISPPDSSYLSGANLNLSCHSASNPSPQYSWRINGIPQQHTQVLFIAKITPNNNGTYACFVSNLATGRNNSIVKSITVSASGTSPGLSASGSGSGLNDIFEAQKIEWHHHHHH

T2: cCEACAM5, M. fascicularis CEACAM5 ECD (35-688) (Macaca fascicularis)
T2 construct: ECD followed by a 24 amino acid extension containing a His-Tag; also called cynomolgus CEACAM5; monkey CEACAM5
T2 chain: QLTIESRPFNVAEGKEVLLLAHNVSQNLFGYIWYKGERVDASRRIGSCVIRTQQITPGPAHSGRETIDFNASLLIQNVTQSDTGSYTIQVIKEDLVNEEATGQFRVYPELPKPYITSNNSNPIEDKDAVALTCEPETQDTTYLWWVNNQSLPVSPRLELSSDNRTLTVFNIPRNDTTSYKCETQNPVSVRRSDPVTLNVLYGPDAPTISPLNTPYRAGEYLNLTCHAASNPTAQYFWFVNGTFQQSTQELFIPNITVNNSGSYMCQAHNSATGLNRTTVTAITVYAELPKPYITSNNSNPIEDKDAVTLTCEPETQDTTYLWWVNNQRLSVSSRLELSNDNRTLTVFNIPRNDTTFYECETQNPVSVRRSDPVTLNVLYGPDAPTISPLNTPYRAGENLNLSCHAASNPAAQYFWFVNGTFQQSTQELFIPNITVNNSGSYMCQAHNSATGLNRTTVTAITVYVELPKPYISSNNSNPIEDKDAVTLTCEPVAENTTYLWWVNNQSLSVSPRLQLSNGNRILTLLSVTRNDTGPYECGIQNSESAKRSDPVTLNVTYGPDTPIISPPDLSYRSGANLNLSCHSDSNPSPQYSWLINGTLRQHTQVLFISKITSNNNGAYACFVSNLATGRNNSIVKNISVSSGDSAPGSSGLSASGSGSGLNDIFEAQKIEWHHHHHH

T3: hCEACAM1, human CEACAM1 ECD (35-428) (human, UniProt P13688 35-428)
T3 construct: With 24 amino acid extension containing a His-Tag; also called hEACAM1
T3 sequence: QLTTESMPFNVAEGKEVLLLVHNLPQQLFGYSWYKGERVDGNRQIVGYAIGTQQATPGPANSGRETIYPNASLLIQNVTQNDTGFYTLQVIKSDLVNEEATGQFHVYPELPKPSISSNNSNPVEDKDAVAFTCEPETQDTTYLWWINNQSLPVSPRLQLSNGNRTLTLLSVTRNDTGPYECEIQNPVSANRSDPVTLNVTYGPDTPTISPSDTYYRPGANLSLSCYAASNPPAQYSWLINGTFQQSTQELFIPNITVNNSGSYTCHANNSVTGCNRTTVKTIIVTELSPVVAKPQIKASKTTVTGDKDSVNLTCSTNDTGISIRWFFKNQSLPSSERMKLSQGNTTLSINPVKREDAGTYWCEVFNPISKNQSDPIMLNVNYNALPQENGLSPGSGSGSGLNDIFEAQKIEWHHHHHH

T4: CEACAM5 A2B2, human CEACAM5 A2-B2 domain (321-498) (human, UniProt P06731 321-498)
T4 construct: Followed by 6 amino acid His-Tag; also called hCEACAM5-A2-B2
T4 sequence: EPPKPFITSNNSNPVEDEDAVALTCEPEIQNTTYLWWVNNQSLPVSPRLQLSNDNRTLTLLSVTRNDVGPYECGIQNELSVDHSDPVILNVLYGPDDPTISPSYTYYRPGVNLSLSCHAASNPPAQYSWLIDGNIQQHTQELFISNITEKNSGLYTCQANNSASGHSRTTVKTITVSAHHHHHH

B1: huMAb2-3 (antibody, human IgG1, kappa, V domains shown)
VH: EVQLQESGPGLVKPGGSLSLSCAASGFVFSSYDMSWVRQTPERGLEWVAYISSGGGITYAPSTVKGRFTVSRDNAKNTLYLQMNSLTSEDTAVYYCAAHYFGSSGPFAYWGQGTLVTVSS
VL: DIQMTQSPASLSASVGDRVTITCRASENIFSYLAWYQQKPGKSPKLLVYNTRTLAEGVPSRFSGSGSGTDFSLTISSLQPEDFATYYCQHHYGTPFTFGSGTKLEIKR
notes: Humanized MAb2, human IgG1 / Ckappa; also called MAb2_VL1cVH1a-IgG1
B2: huMAb2-1 (antibody, V domains shown)
VH: B1 VH with G44R, A60F, V93I, S120A
VL: DIQMTQSPASLSASVGDTVTITCRASENIFSYLAWYQQKPGKSPKLLVYNTKTLAEGVPSRFSGSGSGTQFSLTISSLQPEDFGSYYCQHHYGTPFTFGSGTKLEIK
notes: Humanized MAb2 (VL1 + VH1) fused to human IgG1 and human Ckappa constant domains; also called MAb2_VL1VH1-IgG1; MAb2VL1VH1-IgG1
B3: huMAb2-4 (antibody, human IgG1, kappa, V domains shown)
VH: B1 VH with G44R, A60F, V93I, S120A
VL: B1 VL with R18T, D70Q, A84G, T85S
notes: Humanized MAb2, human IgG1 / Ckappa; also called MAb2_VL1d VH1-IgG1; MAb2_VL1dVH1-IgG1
B4: huMAb2-2 (antibody, V domains shown)
VH: B1 VH
VL: B2 VL with T18R, Q70D, G84A, S85T
notes: Humanized MAb2 (VL1a + VH1a) fused to human IgG1 and human Ckappa constant domains; also called MAb2_VL1aVH1a-IgG1; MA2_VL1aVH1a-IgG1
B5: chMAb2 (antibody, human IgG1, kappa, V domains shown)
VH: EVQLQESGGVLVKPGGSLKLSCAASGFVFSSYDMSWVRQTPEKRLEWVAYISSGGGITYFPDTVQGRFTVSRDNAKNTLYLQMNSLKSEDTAIYYCAAHYFGSSGPFAYWGQGTLVTVSA
VL: B1 VL with D17E, R18T, P40Q, K45Q, R52K, D70Q, T74K, S76N, A84G, T85S
notes: Chimeric, human IgG1, Ck isotype; also called MAb2-IgG1; chimeric MAb2
B6: antibody MAb4 (antibody, IgG1, V domains shown)
VH: EVQLVESGGGLVKPGGSLKLSCAASGFTFSSYDMSWVRQTPEKRLEWVAFISSYGGRTYYADTVKGRFTISRDNAKNTLYLQMSSLKSEDTAMFYCAAHYFGTSGPFAYWGQGTLVTVSA
VL: DIQMTQSPASLSASVGETVTITCRASENIYSYFAWYQQKQGKSPQLLVYNAKILAEGVPSRFSGSGSGTQFSLKINSLQPEDFGTYYCQHHYGIPFTFGSGTKLELK
notes: Murine monoclonal from hybridoma, IgG1, kappa
B7: antibody MAb5 (antibody, IgG1, V domains shown)
VH: ELQLVESGGVLVKPGGSLKLSCAASGFAFSSYDMSWVRQTPEKRLEWVTYINSGGGITYYPDTVKGRFTISRDNARNTLYLQMSSLKSEDTAIYYCTAHYFGSSGPFAYWGQGTLVTVSA
VL: B6 VL with F33L, I53T, A55T, T85S, I94T, L106I
notes: as for B6
B8: antibody MAb1 (antibody, IgG1, V domains shown)
VH: EVMLVESGGGLVKPGGSLKLSCAASGFTFSSYAMSWVRQTPEKRLEWVATISSGGSYIYYLDSVKGRFTISRDNAKNTLYLQMSSLRSEDTAMYYCARPAYYGNPAMDYWGQGTSVTVSS
VL: DILMTQSQKFMSTSVGDRVSVTCKASQNVGTNVAWYQQKPGQSPKPLIYSASYRYSGVPDRFTGSGSGTDFTLTISNVQSEDLAEYFCQQYNSYPLYTFGGGTKLEIK
B9: antibody MAb3 (antibody, IgG1, V domains shown)
VH: EVKLVESGGGLVKPGGSLTLPCAASGFTFSRYAMSWVRQTPEKRLEWVASISSGGDTYYPDSVKGRFTVSRDNARNILFLQMSSLRSEDTGMYYCARVNYYDSSFLDWWGQGTTLTVSS
VL: B8 VL with L3V, K9R, S14L, V15E, P46A, S93N
notes: as for B6

Target: T1, hCEACAM5, human CEACAM5 ECD (35-685)
Test: ELISA

EC50 [nM] | Binder
0.18 | B1
0.22 | B2
0.22 | B3
0.2 | B4
0.16 | B5

Target: T2, cCEACAM5, M. fascicularis CEACAM5 ECD …
Test: ELISA

EC50 [nM] | Binder
0.19 | B1
0.2 | B2
0.17 | B3
0.17 | B4
0.17 | B5

Target: T1, hCEACAM5, human CEACAM5 ECD (35-685)
Test: ELISA
Remark: another data set of the same source

percentage of binding compared to full binding with human CEACAM5 [%] | Binder
100 | B1
100 | B2
100 | B3
100 | B4
100 | B5

Target: T3, hCEACAM1, human CEACAM1 ECD (35-428)
Test: ELISA

percentage of binding compared to full binding with human CEACAM5 [%] | Binder
0.3 | B1
0.3 | B2
0.3 | B3
0.3 | B4
0.3 | B5

Target: T1, hCEACAM5, human CEACAM5 ECD (35-685)
Test: ELISA, coated CEACAM5
Method: (§1) All CEACAM5-specific mAbs were assessed for their ability to bind human and primate CEACAM5 protein by ELISA. Plates were coated with human or primate CEACAM5 protein, anti-hCEACAM5 mAbs were added to the plate and detected with rabbit anti-mouse IgG conjugated with horseradish peroxidase (Sigma; # A9044). The antibody binding was visualized by adding TMB-H2O2 buffer and read at a wavelength of 450 nm.

EC50 [nM] | Binder
0.08 | B6
0.4 | B7
0.53 | B8
0.36 | B9

Target: T2, cCEACAM5, M. fascicularis CEACAM5 ECD …
Test: ELISA, coated CEACAM5
Method: as §1

EC50 [nM] | Ratio c/h (EC50 on cCEACAM5 against EC50 on hCEACAM5) | Binder
0.05 | 0.6 | B6
0.45 | 1.1 | B7
1.18 | 2.2 | B8
3.72 | 10 | B9

Target: T4, CEACAM5 A2B2, human CEACAM5 A2-B2 …
Test: ELISA on CEACAM5 domains

percentage of binding compared to full binding with human CEACAM5 [%] | Binder
0.4 | B1
0.3 | B2
0.3 | B3
0.3 | B4
0.3 | B5
